Results reported in patent publication US20180280488A1, “Methods and Compositions for Binding Complement C3 for Targeting of Immune Cells” (University of Alaska Anchorage, priority 2017, published 2018).

B1: ovalbumin (protein, UniProt P01012 2-386, looked up)
Ovalbumin: GSIGAASMEFCFDVFKELKVHHANENIFYCPIAIMSALAMVYLGAKDSTRTQINKVVRFDKLPGFGDSIEAQCGTSVNVHSSLRDILNQITKPNDVYSFSLASRLYAEERYPILPEYLQCVKELYRGGLEPINFQTAADQARELINSWVESQTNGIIRNVLQPSSVDSQTAMVLVNAIVFKGLWEKAFKDEDTQAMPFRVTEQESKPVQMMYQIGLFRVASMASEKMKILELPFASGTMSMLVLLPDEVSGLEQLESIINFEKLTEWTSSNVMEERKIKVYLPRMKMEEKYNLTSVLMAMGITDVFSSSANLSGISSAESLKISQAVHAAHAEINEAGREVVGSAEAGVDAASVSEEFRADHPFLFCIKHIATNAVLFFGRCVSP
notes: Non-encapsulated ovalbumin, model tumor antigen, matched to the encapsulated amount

Assays:
[1] = system: OVA-specific T cell hybridoma D011; test: T cell activation: BMDC co-culture with OVA-specific reporter T cell hybridoma D011 (GFP); assay type: cell-based, mice; conditions: BMDC 24 hours with OVA treatments, D011 T cells 24 hours; mean±standard error (n=3)
Experimental: Bone marrow was extracted from adult BALB/c mice. Mice were euthanized and femur and humerus bones removed and cleaned of tissue. Bones were kept in RPMI in a sterile petri dish, and bone marrow was flushed from bones using RPMI and a 1 mL insulin syringe. Extracted bone marrow was filtered through a 100 μm nylon mesh filter and rinsed twice in RPMI. Bone marrow cells were then counted and plated at a density of 2×10^6 cells in culture medium (RPMI, 10% heat inactivated FBS, 1% penicillin/streptomycin). Granulocyte-macrophage colony stimulating factor (GM-CSF) and Interleukin-4 (IL-4) were added to the culture medium at 40 ng/mL and 20 ng/mL, respectively. Cells were incubated at 37° C. and medium with GM-CSF and IL-4 was replenished after 3 days. On day 6, non-adherent and loosely-adherent cells were harvested by pipetting and re-suspended in culture media.
10 μL of OPSS-liposomes containing OVA, control-liposomes containing OVA and free OVA matching the amount encapsulated in OPSS-liposomes (see liposome preparation) were incubated in 10 μL C3-positive and -negative serum for 1 hour at room temperature prior to addition to 80 μL of bone marrow-derived dendritic cells in RPMI (1% penicillin/streptomycin) containing 1.6×10^5 cells per well in a U-bottom plate. […] The co-cultures were then analyzed for T cell activation (GFP expression) by fluorescence microscopy and flow cytometry.

[2] = Liver toxicity assays (plasma AST, ALT); assay type: in vivo; conditions: A20-OVA mice, 4 days after last injection
Experimental: Mice were euthanized following therapy, 4 days after the last injection and blood was collected via cardiac puncture and placed in heparinized tubes. Plasma was separated from blood via centrifugation at 500×g for 15 minutes and frozen at −80° C. for subsequent analysis. Red blood cell lysis buffer (eBioscience) was added to the remaining blood for 10 minutes at room temperature. Samples were then prepared for flow cytometry analysis or frozen in culture media supplemented with 10% dimethyl sulfoxide for later use.
Mouse plasma levels of aspartate transaminase (AST) and alanine transaminase (ALT) were determined using kits purchased from BioAssay Systems (Hayward, Calif., USA). Plasma was collected from mice as previously described. Plasma samples were diluted 1:1 in assay buffer prior to addition to a Falcon flat-bottom microtest 96-well assay plate, black/clear bottom (Becton Dickinson Labware, Franklin Lakes, N.J., USA). Absorbance was measured at 340 nm at 5 and 10 minutes using a BioTek Synergy HT plate reader, and enzyme activity was calculated according to the protocol.

Row | Molecule | T cell activation (GFP expression) [1] [%] | ALT in mouse plasma ([2]; normal range 15-84 U/L) [U/L] | AST in mouse plasma ([2]; normal range 54-298 U/L) [U/L]
1 | ovalbumin [free OVA, Non-encapsulated ovalbumin, model tumor antigen, matched to the encapsulated amount] | 14.4±0.8 | – | –
2 | B1 | – | 51.2±34.7 | 110.4±25.6
